Here are results for five proteins from PMC10320395, “Molecular insights into LINC complex architecture through the crystal structure of a luminal trimeric coiled-coil domain of SUN1” (Frontiers in Cell and Developmental Biology, 2023).

Data set [1] concerns the molecule itself. In words: SEC-MALS; cleaved SUN1 constructs at > 5 mg/mL; Superdex 200 Increase 10/300 GL, 20 mM HEPES pH 7.5, 150 mM KCl, 2 mM DTT. Background: Size exclusion chromatography separates by hydrodynamic size, large species first.
Data set [2] deals with the molecule itself. The data set is described as follows: crystal structure; SUN1 362–401 at 3.5 mg/mL, sitting drops, 20°C; spacegroup P2(1), a SUN1 trimer in the asymmetric unit; 2.07 Å.
Data set [3] deals with the molecule itself. The data set is described as follows: SEC-MALS; MBP-SUN1 α1 at 20 mg/mL and 1 mg/mL after purification, and at 20 mg/mL after over-night incubation with 2 mM zinc acetate (trimer stabilised); Superdex 200 Increase 10/300 GL, 20 mM HEPES pH 7.5, 150 mM KCl, 2 mM DTT; trimer to dimers to monomers.

“And” between values parts separate entries of the source, which are not always exact repeats. Equal values may be shown once. Where no end group is shown, it is not given here.

B1: SUN1 α2 (second luminal coiled-coil domain of human SUN1, amino-acids 421–584) (domain or fragment, UniProt O94901 421-584, looked up)
chain: ETDFMAFHQEHEVRMSHLEDILGKLREKSEAIQKELEQTKQKTISAVGEQLLPTVEHLQLELDQLKSELSSWRHVKTGCETVDAVQERVDVQVREMVKLLFSEDQQGGSLEQLLQRFSSQFVSKGDLQTMLRDLQLQILRNVTHHVSVTKQLPTSEAVVSAVSE
notes: human SUN1, Uniprot O94901, amino-acids 421–584 (α2 coiled-coil domain); Theoretical monomer 19 kDa, so the cleaved protein stood in SEC-MALS; source: E. coli BL21 (DE3), purified (Ni-NTA, amylose, ion exchange, TEV cleavage, ion exchange, SEC); not shown: His, N-terminal, cleaved; MBP, N-terminal, cleaved
On to B1, for which the “stoichiometry N” value in data set [1] was 3 and 2.

B2: SUN1 α1 (luminal coiled-coil domain of human SUN1, amino-acids 362–401) (domain or fragment, UniProt O94901 362-401, looked up)
chain: MSGVEQQVASLSGQCHHHGENLRELTTLLQKLQARVDQME
modifications: also: C376 partly oxidised to S-hydroperoxycysteine in crystal chain B, occupancy 0.62
notes: human SUN1, Uniprot O94901, amino-acids 362–401 (α1 coiled-coil domain of the luminal region); Expressed from pMAT11 as a TEV-cleavable His-MBP fusion; tags removed with TEV protease; About one zinc ion per trimer was found in solution; the crystal lacked zinc; also called SUN1 362–401; source: E. coli BL21 (DE3), purified (Ni-NTA, amylose, ion exchange, TEV cleavage, ion exchange, SEC); not …
As to B2, the binding result in data set [2] was “binds”.

B3: MBP-SUN1 α1 (MBP fusion of human SUN1 amino-acids 362–401) (domain or fragment, UniProt O94901 362-401, looked up)
chain: MSGVEQQVASLSGQCHHHGENLRELTTLLQKLQARVDQME
notes: human SUN1, Uniprot O94901, amino-acids 362–401 (α1 coiled-coil domain); The uncleaved His-MBP fusion from pMAT11, used to give greater molecular mass resolution in SEC-MALS; theoretical monomer 49 kDa; The His tag probably stays with the MBP (surmise); source: E. coli BL21 (DE3), purified (Ni-NTA, amylose, ion exchange); not shown: MBP, N-terminal, kept
Regarding B3, the “stoichiometry N” value in data set [3] was 3 and 2.

B4: SUN1 α1-α2-SUN (entire structured luminal domain of human SUN1, amino-acids 362–785) (domain or fragment, UniProt O94901 362-785, looked up)
chain: MSGVEQQVASLSGQCHHHGENLRELTTLLQKLQARVDQMEGGAAGPSASVRDAVGQPPRETDFMAFHQEHEVRMSHLEDILGKLREKSEAIQKELEQTKQKTISAVGEQLLPTVEHLQLELDQLKSELSSWRHVKTGCETVDAVQERVDVQVREMVKLLFSEDQQGGSLEQLLQRFSSQFVSKGDLQTMLRDLQLQILRNVTHHVSVTKQLPTSEAVVSAVSEAGASGITEAQARAIVNSALKLYSQDKTGMVDFALESGGGSILSTRCSETYETKTALMSLFGIPLWYFSQSPRVVIQPDIYPGNCWAFKGSQGYLVVRLSMMIHPAAFTLEHIPKTLSPTGNISSAPKDFAVYGLENEYQEEGQLLGQFTYDQDGESLQMFQALKRPDDTAFQIVELRIFSNWGHPEYTCLYRFRVHGEPVK
notes: human SUN1, Uniprot O94901, amino-acids 362–785 (α1, α2 and the C-terminal SUN domain); Theoretical trimer 142 kDa; source: E. coli BL21 (DE3), purified (Ni-NTA, amylose, ion exchange, TEV cleavage, ion exchange, SEC); not shown: His, N-terminal, cleaved; MBP, N-terminal, cleaved
Consider B4, for which, in data set [1], the “stoichiometry N” value was found to be 3.

B5: SUN1 α1-α2 (human SUN1 amino-acids 362–584) (domain or fragment, UniProt O94901 362-584, looked up)
chain: MSGVEQQVASLSGQCHHHGENLRELTTLLQKLQARVDQMEGGAAGPSASVRDAVGQPPRETDFMAFHQEHEVRMSHLEDILGKLREKSEAIQKELEQTKQKTISAVGEQLLPTVEHLQLELDQLKSELSSWRHVKTGCETVDAVQERVDVQVREMVKLLFSEDQQGGSLEQLLQRFSSQFVSKGDLQTMLRDLQLQILRNVTHHVSVTKQLPTSEAVVSAVSE
notes: human SUN1, Uniprot O94901, amino-acids 362–584 (α1 and α2 coiled-coils joined by their natural linker); Theoretical trimer 75 kDa; source: E. coli BL21 (DE3), purified (Ni-NTA, amylose, ion exchange, TEV cleavage, ion exchange, SEC); not shown: His, N-terminal, cleaved; MBP, N-terminal, cleaved
Take B5: the “stoichiometry N” value in data set [1] turned out to be 3.

A word on the stoichiometry N: it is a count of units in the complex or per binding partner.
